These are literature values, as cited in publication PMC7751257.

For this data set, the target named is Spike RBD RBD (SARS-CoV-2) (UniProt P0DTC2).

Regarding “SBP1 α1 helix 23-mer (from UniProt Q9BYF1)”, the Kd (as a rule, the concentration at which binding is half-saturated) is 47 nM.
